These are literature values, as cited in publication PMC3496038.

In general, Kd refers to the free concentration of one partner at which half of the binding sites on the other are occupied at equilibrium, for simple one-to-one binding.

In data set [1] the target is GluA1 NTD (Rattus norvegicus) (UniProt P19490). Put plainly: analytical ultracentrifugation.
Data set [2] addresses GluA3 NTD (Rattus norvegicus) (UniProt P19492). Put plainly: analytical ultracentrifugation.

Turning to GluA1 NTD (from UniProt P19490), the Kd in data set [1] is 100 nM.

As for GluA3 NTD (from UniProt P19492), in data set [2], the Kd is 1000 nM.
